Laboratory results: patent publication US20230322953A1 (HARBOUR BIOMED SHANGHAI, published 2023)
Like-named read-outs stand apart in the source and are kept apart here.

Assays:
[1] = biological target: T1, human CD3 (TCR/CD3 complex) on human T cells (human, UniProt P07766 23-207); assay: flow cytometry (FACS) on human T cells, Experiment 3
T1 construct: whole, on cells

[2] = biological target: T2, cynomolgus monkey CD3 (TCR/CD3 complex) on cynomolgus monkey T cells (cynomolgus monkey); assay: flow cytometry (FACS) on cynomolgus monkey T cells
T2 construct: whole, on cells
T2 sequence (Q95LI5 22-198, one chain of several): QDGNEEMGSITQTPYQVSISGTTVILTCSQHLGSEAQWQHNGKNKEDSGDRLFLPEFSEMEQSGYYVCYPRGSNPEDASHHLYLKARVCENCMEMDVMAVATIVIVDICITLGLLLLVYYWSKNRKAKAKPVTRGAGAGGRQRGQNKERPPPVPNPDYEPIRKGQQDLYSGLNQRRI

[3] = biological target: T3, cynomolgus monkey BCMA (ACRO Biosystems, #BCA-C82F4) (cynomolgus monkey, UniProt A0A2K5UD97 1-53); assay: BLI; KD for cynomolgus monkey BCMA divided by KD for human BCMA
T3 construct: Bought protein; also called cyBCMA.Fc
T3 sequence (A0A2K5UD97 entry or part of it): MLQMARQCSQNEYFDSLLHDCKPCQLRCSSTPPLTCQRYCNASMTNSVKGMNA

[4] = biological target: T4, biotinylated human BCMA-Fc, Avitag recombinant protein (ACRO Biosystems, #BC7-H82F0) (human, UniProt Q02223 1-54, biotinylated (Avitag)); assay: BLI (Octet Red96e), biotinylated BCMA-Fc on SA sensor, 1:1 global fitting;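 also: Anti-BCMA antibodies analysed as binding partners of the captured BCMA antigen, with reference signals removed by double referencing before kinetic fitting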
T4 construct: extracellular domain; Bought protein; also called huBCMA.Fc; recombinant human BCMA-ECD-Fc
T4 sequence (looked up): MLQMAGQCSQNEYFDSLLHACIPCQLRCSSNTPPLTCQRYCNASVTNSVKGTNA

[5] = biological target: T3, cynomolgus monkey BCMA (ACRO …); assay: BLI (Octet Red96e), cyBCMA.Fc on SA sensor, 1:1 global fitting
[6] = biological target: T5, human BCMA on NCI-H929 cells (ATCC, CRL-9068) (human, UniProt Q02223 1-184); assay: cell-based or functional assay
T5 sequence (looked up): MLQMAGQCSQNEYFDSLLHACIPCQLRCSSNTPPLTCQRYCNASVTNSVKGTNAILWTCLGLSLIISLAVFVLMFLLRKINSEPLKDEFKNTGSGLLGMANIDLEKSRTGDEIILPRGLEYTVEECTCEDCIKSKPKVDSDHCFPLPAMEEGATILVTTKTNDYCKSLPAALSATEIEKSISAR

[7] = biological target: T5, human BCMA on NCI-H929 cells (ATCC, …); assay: cell-based or functional assay; remark: listed apart in the source
[8] = biological target: T5, human BCMA on NCI-H929 cells (ATCC, …); assay: cell-based or functional assay; remark: listed apart in the source
[9] = biological target: T5, human BCMA on NCI-H929 cells (ATCC, …); assay: cell-based or functional assay; remark: listed apart in the source

T1 sequence (P07766 23-207, one chain of several): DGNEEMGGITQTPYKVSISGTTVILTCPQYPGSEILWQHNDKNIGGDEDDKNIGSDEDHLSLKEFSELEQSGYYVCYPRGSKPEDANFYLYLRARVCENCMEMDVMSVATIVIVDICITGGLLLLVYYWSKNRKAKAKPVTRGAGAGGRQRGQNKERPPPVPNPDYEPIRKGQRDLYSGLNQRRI

B1: PR002929 (bispecific antibody, human IgG1, lambda, L234A L235A)
light: QAVVTQEPSLTVSPGGTVTLTCRSSTGAVTTSNYANWVQQKPGQAPRGLIGGTNKRAPWTPARFSGSLLGDKAALTLLGAQPEDEAEYFCALWYSNLWVFGGGTKLTVLGQPKAAPSVTLFPPSSEELQANKATLVCLISDFYPGAVTVAWKADSSPVKAGVETTTPSKQSNNKYAASSYLSLTPEQWKSHRSYSCQVTHEGSTVEKTVAPTECS
heavy: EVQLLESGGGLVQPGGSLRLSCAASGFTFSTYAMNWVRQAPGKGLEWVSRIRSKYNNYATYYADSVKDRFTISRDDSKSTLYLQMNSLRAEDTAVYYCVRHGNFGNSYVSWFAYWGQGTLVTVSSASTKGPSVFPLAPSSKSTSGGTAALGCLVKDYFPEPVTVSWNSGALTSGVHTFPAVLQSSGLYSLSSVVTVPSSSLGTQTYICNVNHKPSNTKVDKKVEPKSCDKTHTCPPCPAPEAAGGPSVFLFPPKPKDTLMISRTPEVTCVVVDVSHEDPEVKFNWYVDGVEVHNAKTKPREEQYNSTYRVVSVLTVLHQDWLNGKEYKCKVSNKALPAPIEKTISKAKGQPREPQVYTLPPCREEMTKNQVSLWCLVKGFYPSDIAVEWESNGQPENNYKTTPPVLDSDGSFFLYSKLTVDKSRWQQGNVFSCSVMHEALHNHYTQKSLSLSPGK
chain: EVQLVETGGGLIQPGGSLRLSCAASGFTVSDNYMTWVRQAPGKGLEWVSVIFSGGNTYYADSVKGRFTISRDNAKNTLYLQMNSLRAEDTALYYCARRNYDDTRGTDVFDIWGQGTMVTVSSASEPKSSDKTHTCPPCPAPEAAGGPSVFLFPPKPKDTLMISRTPEVTCVVVDVSHEDPEVKFNWYVDGVEVHNAKTKPREEQYNSTYRVVSVLTVLHQDWLNGKEYKCKVSNKALPAPIEKTISKAKGQPREPQVCTLPPSREEMTKNQVSLSCAVKGFYPSDIAVEWESNGQPENNYKTTPPVLDSDGSFFLVSKLTVDKSRWQQGNVFSCSVMHEALHNHYTQKSLSLSPGK
Maximum MFI [1]: 283000 MFI | Maximum MFI [2]: 10100 MFI | KD ratio (cy BCMA/hu BCMA) [3]: 1.11 | Kd [4]: 5.95 nM | koff [4]: 0.00148 s⁻¹ | kon [4]: 249000 M⁻¹ s⁻¹ | Kd [5]: 6.62 nM | koff [5]: 0.00582 s⁻¹ | kon [5]: 879000 M⁻¹ s⁻¹

B2: PR002309 (bispecific antibody, human IgG1, lambda, L234A L235A)
light: B1 light
heavy: EVQLLESGGGLVQPGGSLRLSCAASGFTFSTYAMNWVRQAPGKGLEWVSRIRSKYNNYATYYADSVKDRFTISRDDSKSTLYLQMNSLRAEDTAVYYCVRHGNFGNSYVSWFAYWGQGTLVTVSSASTKGPSVFPLAPSSKSTSGGTAALGCLVKDYFPEPVTVSWNSGALTSGVHTFPAVLQSSGLYSLSSVVTVPSSSLGTQTYICNVNHKPSNTKVDKKVEPKSCDKTHTCPPCPAPEAAGGPSVFLFPPKPKDTLMISRTPEVTCVVVDVSHEDPEVKFNWYVDGVEVHNAKTKPREEQYNSTYRVVSVLTVLHQDWLNGKEYKCKVSNKALGAPIEKTISKAKGQPREPQVYTLPPCREEMTKNQVSLWCLVKGFYPSDIAVEWESNGQPENNYKTTPPVLDSDGSFFLYSKLTVDKSRWQQGNVFSCSVMHEALHNHYTQKSLSLSPGK
chain: EVQLVETGGGLIQPGGSLRLSCAASGFTVSDNYMTWVRQAPGKGLEWVSVIFSGGNTYYADSVKGRFTISRDNAKNTLYLQMNSLRAEDTALYYCARRNYDDTRGTDVFDIWGQGTMVTVSSRTGGGGSGGGGSGGGGSKLEVQLVETGGGLIQPGGSLRLSCAASGFTVSDNYMTWVRQAPGKGLEWVSVIFSGGNTYYADSVKGRFTISRDNAKNTLYLQMNSLRAEDTALYYCARRNYDDTRGTDVFDIWGQGTMVTVSSASEPKSSDKTHTCPPCPAPEAAGGPSVFLFPPKPKDTLMISRTPEVTCVVVDVSHEDPEVKFNWYVDGVEVHNAKTKPREEQYNSTYRVVSVLTVLHQDWLNGKEYKCKVSNKALGAPIEKTISKAKGQPREPQVCTLPPSREEMTKNQVSLSCAVKGFYPSDIAVEWESNGQPENNYKTTPPVLDSDGSFFLVSKLTVDKSRWQQGNVFSCSVMHEALHNHYTQKSLSLSPGK
Killing EC50 (nM), T cell + NCI-H929, + 10 ng/mL sAPRIL [6]: 0.000538 nM | Killing EC50 (nM), T cell + NCI-H929, + 10 ng/mL sBAFF [6]: 0.000447 nM | Killing EC50 (nM), T cell + NCI-H929, + 100 ng/mL sAPRIL [6]: 0.000991 nM | Killing EC50 (nM), T cell + NCI-H929, + 100 ng/mL sBAFF [6]: 0.000474 nM | Killing EC50 (nM), T cell + NCI-H929, no soluble ligand [6]: 0.000439 nM | Killing EC50 (nM), T cell + NCI-H929, + 62.5 ng/mL sBCMA [7]: 0.00296 nM | Killing EC50 (nM), T cell + NCI-H929, + 125 ng/mL sBCMA [7]: 0.00347 nM | Killing EC50 (nM), T cell + NCI-H929, + 250 ng/mL sBCMA [7]: 0.005 nM | Killing EC50 (nM), T cell + NCI-H929, + 500 ng/ml sBCMA [7]: 0.0088 nM | Killing EC50 (nM), T cell + NCI-H929, no sBCMA [7]: 0.000393 nM | Maximum MFI [1]: 317000 MFI | Maximum MFI [2]: 11700 MFI | KD ratio (cy BCMA/hu BCMA) [3]: 3.16 | Kd [4]: 0.0448 nM | koff [4]: 1.89e-05 s⁻¹ | kon [4]: 422000 M⁻¹ s⁻¹ | IFN-γ release, EC50 [8]: 0.0194 nM | IFN-γ release, Maximum [8]: 1950 pg/mL | IL-2 release, EC50 [8]: 0.0375 nM | IL-2 release, Maximum [8]: 222 pg/mL | IL-6 release, EC50 [8]: 0.195 nM | IL-6 release, Maximum [8]: 209 pg/mL | IL-10 release, EC50 [8]: 0.0298 nM | IL-10 release, Maximum [8]: 1050 pg/mL | NCI-H929 killing, EC50 [8]: 0.00772 nM | NCI-H929 killing, Maximum killing rate % [8]: 69.5% | TNF-α release, EC50 [8]: 0.0445 nM | TNF-α release, Maximum [8]: 1300 pg/mL | Kd [5]: 0.141 nM | koff [5]: 0.000116 s⁻¹ | kon [5]: 823000 M⁻¹ s⁻¹

B3: PR002895 (bispecific antibody, human IgG1, lambda, L234A L235A)
light: B1 light
heavy: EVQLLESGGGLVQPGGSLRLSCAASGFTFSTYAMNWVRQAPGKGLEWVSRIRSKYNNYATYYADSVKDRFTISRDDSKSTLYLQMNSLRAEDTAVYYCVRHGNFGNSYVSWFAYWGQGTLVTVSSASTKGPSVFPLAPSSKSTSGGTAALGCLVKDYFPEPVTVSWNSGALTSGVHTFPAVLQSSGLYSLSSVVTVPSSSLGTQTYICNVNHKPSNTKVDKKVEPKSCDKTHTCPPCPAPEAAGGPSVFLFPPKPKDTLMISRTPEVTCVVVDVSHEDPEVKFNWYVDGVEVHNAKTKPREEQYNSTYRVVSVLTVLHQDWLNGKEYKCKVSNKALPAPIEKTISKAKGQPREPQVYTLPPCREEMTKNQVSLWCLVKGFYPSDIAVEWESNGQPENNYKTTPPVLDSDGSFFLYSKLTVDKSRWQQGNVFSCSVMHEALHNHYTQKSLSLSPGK
chain: EVQLVETGGGLIQPGGSLRLSCAASGFTVSDNYMTWVRQAPGKGLEWVSVIFSGGNTYYADSVKGRFTISRDNAKNTLYLQMNSLRAEDTALYYCARRNYDDTRGTDVFDIWGQGTMVTVSSGGGGSGGGGSGGGGSEVQLVETGGGLIQPGGSLRLSCAASGFTVSDNYMTWVRQAPGKGLEWVSVIFSGGNTYYADSVKGRFTISRDNAKNTLYLQMNSLRAEDTALYYCARRNYDDTRGTDVFDIWGQGTMVTVSSASEPKSSDKTHTCPPCPAPEAAGGPSVFLFPPKPKDTLMISRTPEVTCVVVDVSHEDPEVKFNWYVDGVEVHNAKTKPREEQYNSTYRVVSVLTVLHQDWLNGKEYKCKVSNKALPAPIEKTISKAKGQPREPQVCTLPPSREEMTKNQVSLSCAVKGFYPSDIAVEWESNGQPENNYKTTPPVLDSDGSFFLVSKLTVDKSRWQQGNVFSCSVMHEALHNHYTQKSLSLSPGK
IFN-γ release, EC50 [9]: 0.0223 nM | IFN-γ release, Maximum [9]: 1440 pg/mL | IL-2 release, EC50 [9]: 0.0211 nM | IL-2 release, Maximum [9]: 100 pg/mL | IL-6 release, EC50 [9]: 0.00839 nM | IL-6 release, Maximum [9]: 118 pg/mL | IL-10 release, EC50 [9]: 0.0134 nM | IL-10 release, Maximum [9]: 240 pg/mL | NCI-H929 killing, EC50 [9]: 0.00293 nM | NCI-H929 killing, Maximum killing rate % [9]: 57.9% | TNF-α release, EC50 [9]: 0.00818 nM | TNF-α release, Maximum [9]: 1280 pg/mL | Maximum MFI [1]: 322000 MFI | Maximum MFI [2]: 18600 MFI | KD ratio (cy BCMA/hu BCMA) [3]: 1.38 | Kd [4]: 0.197 nM | koff [4]: 8.11e-05 s⁻¹ | kon [4]: 412000 M⁻¹ s⁻¹ | Kd [5]: 0.272 nM | koff [5]: 0.000242 s⁻¹ | kon [5]: 890000 M⁻¹ s⁻¹
